Test results: US8697369B2, “Method for screening a test substance for activating a receptor associated with FGF 21 activity” (National Institute of Advanced Industrial Science and …, priority 2007, dated 2014)

Columns and labels:
Assay type in all cases: binding
[1] = molecular target: T1, FGF receptor subtype R4 (FGFR-Fc) (Homo sapiens, UniProt P22455); assay: Co-precipitation of soluble betaKlotho with FGFR-Fc (protein A beads), R4
T1 construct: adding an immunoglobulin Fc domain to the extracellular domain of an FGF receptor; purchased R&D Systems
T1 sequence (P22455 22-369 limits assumed): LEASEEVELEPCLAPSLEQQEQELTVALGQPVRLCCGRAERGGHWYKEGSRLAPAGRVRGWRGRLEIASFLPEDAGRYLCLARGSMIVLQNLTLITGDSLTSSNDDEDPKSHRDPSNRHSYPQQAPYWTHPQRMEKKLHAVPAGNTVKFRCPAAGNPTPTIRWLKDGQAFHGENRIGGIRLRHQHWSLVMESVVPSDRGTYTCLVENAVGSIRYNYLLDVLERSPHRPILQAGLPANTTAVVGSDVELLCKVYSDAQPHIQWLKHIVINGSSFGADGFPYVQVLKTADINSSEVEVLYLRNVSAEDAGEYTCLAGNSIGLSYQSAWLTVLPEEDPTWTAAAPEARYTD
Protocol: (§1) Moreover, the soluble betaKlotho protein and a fusion protein obtained by adding an immunoglobulin Fc domain to the extracellular domain of an FGF receptor (FGFR-Fc; manufactured by R&D Systems) were incubated, and FGFR-Fc was then precipitated using protein A beads. Whether or not betaKlotho bound to FGFR-Fc and was co-precipitated therewith was analyzed.

[2] = molecular target: T2, FGF receptor subtype R3c (FGFR-Fc) (Homo sapiens, UniProt P22607); assay: Co-precipitation of soluble betaKlotho with FGFR-Fc (protein A beads), R3c
T2 construct: adding an immunoglobulin Fc domain to the extracellular domain of an FGF receptor; purchased R&D Systems
T2 sequence (P22607 23-375 limits assumed): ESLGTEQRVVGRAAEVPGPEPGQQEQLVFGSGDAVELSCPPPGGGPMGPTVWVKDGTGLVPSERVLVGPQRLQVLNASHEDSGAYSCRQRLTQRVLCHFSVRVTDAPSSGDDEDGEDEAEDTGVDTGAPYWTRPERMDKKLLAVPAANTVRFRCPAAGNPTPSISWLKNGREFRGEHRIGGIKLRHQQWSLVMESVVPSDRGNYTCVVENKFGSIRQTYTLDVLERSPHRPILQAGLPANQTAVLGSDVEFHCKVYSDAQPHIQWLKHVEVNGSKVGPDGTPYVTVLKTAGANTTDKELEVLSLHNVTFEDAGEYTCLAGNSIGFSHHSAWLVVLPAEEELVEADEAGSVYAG
Protocol: as §1

[3] = molecular target: T3, FGF receptor subtype R1c (FGFR-Fc) (Homo sapiens, UniProt P11362); assay: Co-precipitation of soluble betaKlotho with FGFR-Fc (protein A beads), R1c
T3 construct: adding an immunoglobulin Fc domain to the extracellular domain of an FGF receptor; purchased R&D Systems
T3 sequence (P11362 22-376 limits assumed): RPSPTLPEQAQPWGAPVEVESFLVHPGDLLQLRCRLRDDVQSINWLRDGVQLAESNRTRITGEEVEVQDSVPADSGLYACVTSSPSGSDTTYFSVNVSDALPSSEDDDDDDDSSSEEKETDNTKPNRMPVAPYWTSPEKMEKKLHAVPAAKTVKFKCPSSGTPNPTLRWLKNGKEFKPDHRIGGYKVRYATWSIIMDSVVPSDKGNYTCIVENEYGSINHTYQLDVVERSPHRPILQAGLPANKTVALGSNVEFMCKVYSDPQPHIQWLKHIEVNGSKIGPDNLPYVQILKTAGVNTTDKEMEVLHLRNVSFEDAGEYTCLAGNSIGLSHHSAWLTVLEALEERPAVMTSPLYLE
Protocol: as §1

[4] = molecular target: T4, FGF receptor subtype R2c (FGFR-Fc) (Homo sapiens, UniProt P21802); assay: Co-precipitation of soluble betaKlotho with FGFR-Fc (protein A beads), R2c
T4 construct: adding an immunoglobulin Fc domain to the extracellular domain of an FGF receptor; purchased R&D Systems
T4 sequence (P21802 22-377 limits assumed): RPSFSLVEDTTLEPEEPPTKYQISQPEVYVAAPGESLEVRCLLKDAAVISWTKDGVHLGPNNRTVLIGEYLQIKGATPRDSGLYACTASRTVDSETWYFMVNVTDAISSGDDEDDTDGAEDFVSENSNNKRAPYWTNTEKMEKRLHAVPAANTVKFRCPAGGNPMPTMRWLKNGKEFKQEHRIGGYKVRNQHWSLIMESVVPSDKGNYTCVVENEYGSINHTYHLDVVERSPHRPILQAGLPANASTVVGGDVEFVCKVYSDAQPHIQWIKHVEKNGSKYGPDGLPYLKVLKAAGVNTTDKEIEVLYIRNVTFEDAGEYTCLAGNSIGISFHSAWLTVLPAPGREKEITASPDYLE
Protocol: as §1

Measured: co-precipitation (binding) with FGFR-Fc

betaKlotho: soluble protein: extracellular domain of betaKlotho with V5 tag and His tag at the C-terminus
binds to all of FGF receptor subtypes: all assays above
